1 molecule from paper PMC11203719, “Mts1 (S100A4) and Its Peptide Demonstrate Cytotoxic Activity in Complex with Tag7 (PGLYRP1) Peptide” (International Journal of Molecular Sciences, 2024) can be followed below.

The assay addresses T1, Tag7 (PGLYRP1) protein, recombinant (UniProt O88593).
T1 sequence (O88593 1-182, species assumed, looked up): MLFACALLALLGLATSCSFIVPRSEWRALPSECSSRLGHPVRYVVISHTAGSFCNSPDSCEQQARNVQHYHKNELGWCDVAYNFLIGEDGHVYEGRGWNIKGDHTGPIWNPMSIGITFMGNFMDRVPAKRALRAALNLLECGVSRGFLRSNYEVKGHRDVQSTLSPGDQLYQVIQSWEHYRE
The assay can be described thus: MST; Tag7 labelled with Alexa Fluor 488 (200 nM), preincubated 20 min in the dark at room temperature with 16 concentrations of M7; Monolith NT.115, 10% IR laser power.

Regarding ELPSFLGKRTDEAAFQK [M7 peptide of Mts1 (S100A4)], the Kd stood at 2.96 nM.
